Test results as given in paper PMC2897128 (Nature, 2010).
One block for each binder: values may come before it.

Key:
[1] = target: T1, Sulfolobus solfataricus SRP54 (SRP54 moiety of SRP54*) (Sulfolobus solfataricus, UniProt Q97ZE7 2-432); assay: crystal structure
T1 sequence (looked up): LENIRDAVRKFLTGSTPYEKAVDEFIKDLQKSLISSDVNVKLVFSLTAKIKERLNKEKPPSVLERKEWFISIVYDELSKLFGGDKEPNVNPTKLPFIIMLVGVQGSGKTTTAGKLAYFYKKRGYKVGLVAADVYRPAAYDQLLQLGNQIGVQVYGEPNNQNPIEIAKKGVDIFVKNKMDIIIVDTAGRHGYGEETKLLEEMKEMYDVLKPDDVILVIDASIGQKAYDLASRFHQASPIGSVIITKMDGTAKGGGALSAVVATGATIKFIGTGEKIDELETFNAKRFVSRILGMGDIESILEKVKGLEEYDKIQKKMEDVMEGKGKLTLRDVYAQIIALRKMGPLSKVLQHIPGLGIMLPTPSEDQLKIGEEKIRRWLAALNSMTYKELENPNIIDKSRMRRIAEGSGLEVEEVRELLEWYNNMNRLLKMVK

SEC = target: the molecule itself; assay: SEC

binding result [1]: binds
Binder: KLIRVGIILVLLIWGTVLLLKSIPHH [signal anchor sequence from S. cerevisiae dipeptidyl-aminopeptidase B (DPAP-B)]

B1: SRP54-signal sequence fusion protein (SRP54*) with an 11mer linker (other, Sulfolobus solfataricus | S. cerevisiae)
chain: LENIRDAVRKFLTGSTPYEKAVDEFIKDLQKSLISSDVNVKLVFSLTAKIKERLNKEKPPSVLERKEWFISIVYDELSKLFGGDKEPNVNPTKLPFIIMLVGVQGSGKTTTAGKLAYFYKKRGYKVGLVAADVYRPAAYDQLLQLGNQIGVQVYGEPNNQNPIEIAKKGVDIFVKNKMDIIIVDTAGRHGYGEETKLLEEMKEMYDVLKPDDVILVIDASIGQKAYDLASRFHQASPIGSVIITKMDGTAKGGGALSAVVATGATIKFIGTGEKIDELETFNAKRFVSRILGMGDIESILEKVKGLEEYDKIQKKMEDVMEGKGKLTLRDVYAQIIALRKMGPLSKVLQHIPGLGIMLPTPSEDQLKIGEEKIRRWLAALNSMTYKELENPNIIDKSRMRRIAEGSGLEVEEVRELLEWYNNMNRLLKMVKARSGSGSGSGSKLIRVGIILVLLIWGTVLLLKSIPHH
stoichiometry N (SEC): ≥ 2
